Experimental data reported in PMC2902519, “Impairment of Protein Trafficking upon Overexpression and Mutation of Optineurin” (PLoS ONE, 2010).
Values belong to the molecule of their own block, whether it stands above or below them.

How the values were obtained:
[1] = biological target: T1, E50K optineurin-GFP (OPTN_(E50K)-GFP) (human, UniProt Q96CV9 1-577, E50K); test: co-IP; Tet-on inducible RGC5 cells, doxycycline 1 ug/ml 16 h, expressing OPTNWT-, OPTN_(E50K)- or OPTN_(L157A)-GFP; lysate precipitated with polyclonal anti-GFP; eluates blotted with monoclonal anti-Rab8 or anti-TfR and anti-GFP; band intensity ratio relative to wild type
T1 construct: optineurin, human, with the glaucoma-associated mutation Glu50 to Lys; also called E50K mutant; not shown: GFP, C-terminal, kept

[2] = biological target: T2, L157A optineurin-GFP (OPTN_(L157A)-GFP) (human, UniProt Q96CV9 1-577, L157A); test: as above
T2 construct: optineurin, human, with the point mutation Leu157 to Ala made by site-directed mutagenesis; also called L157A mutant; not shown: GFP, C-terminal, kept
T2 sequence (Q96CV9 whole entry L157A): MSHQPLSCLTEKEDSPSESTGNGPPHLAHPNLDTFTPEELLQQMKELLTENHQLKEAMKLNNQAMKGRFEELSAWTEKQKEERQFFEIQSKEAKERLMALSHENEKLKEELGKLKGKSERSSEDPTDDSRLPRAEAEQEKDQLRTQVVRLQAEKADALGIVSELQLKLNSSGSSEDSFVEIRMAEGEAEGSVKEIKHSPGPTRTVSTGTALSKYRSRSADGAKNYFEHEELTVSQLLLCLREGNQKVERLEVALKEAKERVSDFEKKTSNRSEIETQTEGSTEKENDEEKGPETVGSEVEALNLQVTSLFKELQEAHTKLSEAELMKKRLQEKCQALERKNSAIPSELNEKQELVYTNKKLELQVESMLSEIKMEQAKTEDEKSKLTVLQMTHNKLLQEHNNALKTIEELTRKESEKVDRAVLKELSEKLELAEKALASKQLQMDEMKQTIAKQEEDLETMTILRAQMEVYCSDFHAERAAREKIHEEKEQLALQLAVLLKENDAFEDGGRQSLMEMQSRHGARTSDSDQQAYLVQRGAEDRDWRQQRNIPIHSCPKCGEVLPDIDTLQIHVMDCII

T1 sequence (Q96CV9 whole entry E50K): as the sequence (Q96CV9 whole entry L157A) above, with E50K, A157L counted along it

fold increase of co-precipitated Rab8 against OPTNWT-GFP (fold higher than wild type) [1]: 5 | fold reduction of Rab8 binding against OPTNWT-GFP (fold lower than wild type) [2]: 5
Molecule: endogenous Rab8 of RGC5 cells (from UniProt P35280 1-207) (natural protein)

fold increase of co-precipitated TfR against wild type optineurin ([1]; partners not purified): ~10 fold higher than wild type | fold reduction of co-precipitated TfR against wild type optineurin ([2]; partners not purified): ~5 fold lower than wild type
B1: endogenous transferrin receptor (TfR) of RGC5 cells (receptor, rat (endogenous in RGC5), UniProt Q99376 1-761, looked up)
chain: MMDQARSAFSNLFGGEPLSYTRFSLARQVDGDNSHVEMKLAADEEENADSNMKASVRKPKRFNGRLCFATIAVVIFFLIGFMIGYLGYCKRVEQKEECVRLAEAEEADKSENDETEYVPKSSRLFWADLKTLLSEKLNSIEFTDIIKQLSQNTYTPREAGSQKDENLAYYIENLFHDFKFSKVWRDEHYVKIQVKNSVSQNLVTINSGSNIDPVEAPEGYVAFSKAGEVTGKLVHANFGTKKDFEELNYSVNGSLVIVRAGKITFAEKVANAQSFNAIGVLIYMDRNTFPVVEADLQFFGHAHLGTGDPYTPGFPSFNHTQFPPSQSSGLPSIPVQTISRAAAEKLFKNMEGNCPPSWNIDSSCKLELSQNQNVKLTVNNVLKETRILNIFGVIKGYEEPDRYIVVGAQRDAWGPGVAKSSVGTGLLLKLAQVFSDMISKDGFRPSRSIIFASWTAGDYGAVGATEWLEGYLSSLHLKAFTYINLDKVVLGTSNFKVSASPLLYTLMGKIMQDVKHPIDGKYLYRDSNWISKIEELSLDNAAFPFLAYSGIPAVSFCFCEDEDYPYLGTKLDTYEILIQKVPQLNQMVRTAAEVAGQFIIKLTHDIELTLDYEMYNSKLLSFMKDLNQFKADIKDMGLSLQWLYSARGDYFRATSRLTTDFHNAEKTNRFVMREINDRIMKVEYHFLSPYVSPRESPFRHIFWGSGSHTLSALVENLRLRQKNITAFNETLFRNQLALATWTIQGVANALSGDIWNIDNEF
notes: transferrin receptor, endogenous in rat RGC5 cells, detected as a 95-kDa band by mouse monoclonal anti-human TfR (Zymed); The abstract calls RGC5 a rat cell line; also called 95-kDa TfR; source: endogenous, RGC5 lysate
